Measurements: patent US8586056
Read-outs that look alike come from different tables or passages of the source.

Experiments:
[1] = molecular target: HIV-1 Env 16936 (HIV-1, isolate 16936)
[2] = molecular target: 16936V1-3-55 gp160 full length Env (HIV-1 (16936 with 16055 V1-3 loops))
[3] = molecular target: Env of the 16055 virus (HIV-1 clade C, isolate 16055)
[4] = molecular target: HIV-1 clade C 16055 gp120-Histag, EF117268_gp120 (HIV-1 clade C, isolate 16055); test: Octet
[5] = molecular target: HIV-1 clade C 16055 gp120-Histag, EF117268_gp120 (HIV-1 clade C, isolate 16055); test: Octet (biolayer interferometry)
[6] = molecular target: HIV-1 clade C 16055 gp140-Histag, EF117268_gp140 (HIV-1 clade C, isolate 16055); test: ELISA on recombinant gp140
0013095 gp140 = test: ELISA on recombinant gp140
[7] = molecular target: HIV-1 clade C 16055 gp140-Histag, EF117268_gp140 (HIV-1 clade C, isolate 16055); test: ELISA on recombinant gp140; remark: listed apart in the source
[8] = molecular target: 16055 gp140 trimer with c-terminus trimerization domain GCN4 (HIV-1 clade C, isolate 16055); test: ELISA on recombinant gp140
Zm135 (HIV-1) [9] = molecular target: Zm135 (HIV-1)
DU422 (HIV-1) [10] = molecular target: DU422 (HIV-1)
Zm197 (HIV-1) [11] = molecular target: Zm197 (HIV-1)
CAP45 (HIV-1) [12] = molecular target: CAP45 (HIV-1)
[13] = molecular target: Env of the 16055 virus (HIV-1 clade C, isolate 16055); remark: listed apart in the source
JRCSF [14] = molecular target: JRCSF
YU2 [15] = molecular target: YU2
Du172 (HIV-1) [16] = molecular target: Du172 (HIV-1)
[17] = molecular target: BG505_gp120 (HIV-1 clade A, BG505); test: ELISA on BG505 gp120
[18] = molecular target: Env of the 16055 virus (HIV-1 clade C, isolate 16055); test: ELISA; same curves as panel 16055-2 of FIG. 3A
[19] = molecular target: 16936-16055V123loop (HIV-1 (16936 backbone with 16055 V1, V2 and V3 loops)); test: ELISA
[20] = molecular target: Env of the 16055 virus (HIV-1 clade C, isolate 16055); test: shed gp120 capture ELISA
JRCSF [21] = test: shed gp120 capture ELISA
ZM214 (HIV-1) [22] = molecular target: ZM214 (HIV-1)
JRFL (HIV-1) [23] = molecular target: JRFL (HIV-1)
[24] = molecular target: HIV-1 Env 16936 (HIV-1, isolate 16936); remark: listed apart in the source
Zm135 (HIV-1) [25] = molecular target: Zm135 (HIV-1); remark: listed apart in the source
DU422 (HIV-1) [26] = molecular target: DU422 (HIV-1); remark: listed apart in the source
Zm197 (HIV-1) [27] = molecular target: Zm197 (HIV-1); remark: listed apart in the source
CAP45 (HIV-1) [28] = molecular target: CAP45 (HIV-1); remark: listed apart in the source
SF162 (HIV-1) [29] = molecular target: SF162 (HIV-1)
[30] = molecular target: 0013095 (EF117267) (HIV-1)
[31] = molecular target: Env of the 16055 virus (HIV-1 clade C, isolate 16055); remark: listed apart in the source
QH0692 (HIV-1) [32] = molecular target: QH0692 (HIV-1)
JRCSF [33] = molecular target: JRCSF; remark: listed apart in the source
[34] = molecular target: Zm109F (AY424138) (HIV-1)
YU2 [35] = molecular target: YU2; remark: listed apart in the source
Du172 (HIV-1) [36] = molecular target: Du172 (HIV-1); remark: listed apart in the source
ZM214 (HIV-1) [37] = molecular target: ZM214 (HIV-1); remark: listed apart in the source
JRFL (HIV-1) [38] = molecular target: JRFL (HIV-1); remark: listed apart in the source
SF162 (HIV-1) [39] = molecular target: SF162 (HIV-1); remark: listed apart in the source
QH0692 (HIV-1) [40] = molecular target: QH0692 (HIV-1); remark: listed apart in the source

4E10 (antibody)
neutralization IC50 [1]: 3.85 µg/mL
neutralization IC50 [2]: 2.68 µg/mL
neutralization IC50 [3]: 7.02 µg/mL

A32 (antibody)
Kd [4]: 5.2 nM
koff [4]: 8.23e-05 s⁻¹
kon [4]: 15600 M⁻¹ s⁻¹

F105 (antibody)
Kd [5]: 200 nM
koff [4]: 0.00169 s⁻¹
kon [4]: 8430 M⁻¹ s⁻¹

PG9 (antibody)
EC50 (read off the curve) [6]: 0.1 µg/mL
EC50 (read off the curve) (0013095 gp140): 0.9 µg/mL
EC50 (read off the curve) [7]: 0.2 µg/mL
EC50 (read off the curve) [8]: 0.1 µg/mL
neutralization IC50 (UG037 (HIV-1)): 0.02 µg/mL
neutralization IC50 (REJ0451 (HIV-1)): 0.001 µg/mL
neutralization IC50 (WIT04160 (HIV-1)): 0.005 µg/mL
neutralization IC50 (Q842 (HIV-1)): 0.02 µg/mL
neutralization IC50 (Zm135 (HIV-1) [9]): > 25 µg/mL
neutralization IC50 (DU422 (HIV-1) [10]): 0.178 µg/mL
neutralization IC50 (Zm197 (HIV-1) [11]): 0.287 µg/mL
neutralization IC50 (CAP45 (HIV-1) [12]): 0.003 µg/mL
neutralization IC50 (RW020 (HIV-1)): 0.05 µg/mL
neutralization IC50 [13]: 0.01 µg/mL
neutralization IC50 (JRCSF [14]): 0.002 µg/mL
neutralization IC50 (MulV): > 25 µg/mL
neutralization IC50 (YU2 [15]): 1.73 µg/mL
neutralization IC50 (Du172 (HIV-1) [16]): 0.24 µg/mL
EC50 (read off the curve) [17]: 0.04 µg/mL
EC50 (read off the curve) [18]: 0.3 µg/mL
neutralization IC50 [1]: > 25 µg/mL
neutralization IC50 [2]: 0.03 µg/mL
EC50 (read off the curve) [19]: 0.2 µg/mL
EC50 (read off the curve) [20]: 0.3 µg/mL
EC50 (read off the curve) (JRCSF [21]): 0.3 µg/mL
neutralization IC50 (ZM214 (HIV-1) [22]): > 25 µg/mL
neutralization IC50 (25710 (EF117271) (HIV-1)): < 0.01 µg/mL
neutralization IC50 (JRFL (HIV-1) [23]): > 25 µg/mL
neutralization IC50 (virus printed '6936') [24]: > 25 µg/mL
neutralization IC50 (PVO (HIV-1)): 9.76 µg/mL
neutralization IC50 (Zm135 (HIV-1) [25]): 17.6 µg/mL
neutralization IC50 (AC10 (HIV-1)): 0.05 µg/mL
neutralization IC50 (DU422 (HIV-1) [26]): 1.64 µg/mL
neutralization IC50 (Zm197 (HIV-1) [27]): 0.61 µg/mL
neutralization IC50 (CAP45 (HIV-1) [28]): < 0.01 µg/mL
neutralization IC50 (SF162 (HIV-1) [29]): > 25 µg/mL
neutralization IC50 (Bal (HIV-1)): < 0.01 µg/mL
neutralization IC50 (25925 (EF117273) (HIV-1)): 0.15 µg/mL
neutralization IC50 [30]: < 0.01 µg/mL
neutralization IC50 (6535 (AY835438) (HIV-1)): 0.6 µg/mL
neutralization IC50 [31]: < 0.01 µg/mL
neutralization IC50 (QH0692 (HIV-1) [32]): > 25 µg/mL
neutralization IC50 (CAAN (AY835452) (HIV-1)): 11.9 µg/mL
neutralization IC50 (JRCSF [33]): < 0.01 µg/mL
neutralization IC50 [34]: 0.46 µg/mL
neutralization IC50 (YU2 [35]): < 0.01 µg/mL
neutralization IC50 (Du172 (HIV-1) [36]): 0.49 µg/mL

PG16 (antibody)
EC50 (read off the curve) [6]: 0.08 µg/mL
EC50 (read off the curve) [7]: 0.1 µg/mL
EC50 (read off the curve) [8]: 0.08 µg/mL
neutralization IC50 (UG037 (HIV-1)): 0.01 µg/mL
neutralization IC50 (REJ0451 (HIV-1)): 0.004 µg/mL
neutralization IC50 (WIT04160 (HIV-1)): 0.002 µg/mL
neutralization IC50 (Q842 (HIV-1)): 0.009 µg/mL
neutralization IC50 (DU422 (HIV-1) [10]): 0.042 µg/mL
neutralization IC50 (Zm197 (HIV-1) [11]): 0.765 µg/mL
neutralization IC50 (CAP45 (HIV-1) [12]): 0.002 µg/mL
neutralization IC50 (RW020 (HIV-1)): 0.037 µg/mL
neutralization IC50 [13]: 0.01 µg/mL
neutralization IC50 (JRCSF [14]): 0.001 µg/mL
neutralization IC50 (MulV): > 25 µg/mL
neutralization IC50 (YU2 [15]): 0.114 µg/mL
neutralization IC50 (Du172 (HIV-1) [16]): 0.023 µg/mL
EC50 (read off the curve) [17]: 0.2 µg/mL
neutralization IC50 [1]: > 25 µg/mL
neutralization IC50 [2]: 0.06 µg/mL
neutralization IC50 [3]: < 0.01 µg/mL
neutralization IC50 (ZM214 (HIV-1) [22]): > 25 µg/mL
neutralization IC50 (25710 (EF117271) (HIV-1)): < 0.01 µg/mL
neutralization IC50 (JRFL (HIV-1) [23]): > 25 µg/mL
neutralization IC50 (virus printed '6936') [24]: > 25 µg/mL
neutralization IC50 (PVO (HIV-1)): 21.9 µg/mL
neutralization IC50 (Zm135 (HIV-1) [25]): > 25 µg/mL
neutralization IC50 (AC10 (HIV-1)): < 0.01 µg/mL
neutralization IC50 (DU422 (HIV-1) [26]): 2.34 µg/mL
neutralization IC50 (Zm197 (HIV-1) [27]): 1.68 µg/mL
neutralization IC50 (CAP45 (HIV-1) [28]): < 0.01 µg/mL
neutralization IC50 (SF162 (HIV-1) [29]): > 25 µg/mL
neutralization IC50 (Bal (HIV-1)): < 0.01 µg/mL
neutralization IC50 (25925 (EF117273) (HIV-1)): 0.11 µg/mL
neutralization IC50 [30]: < 0.01 µg/mL
neutralization IC50 (6535 (AY835438) (HIV-1)): > 25 µg/mL
neutralization IC50 (QH0692 (HIV-1) [32]): > 25 µg/mL
neutralization IC50 (CAAN (AY835452) (HIV-1)): 12.9 µg/mL
neutralization IC50 (JRCSF [33]): < 0.01 µg/mL
neutralization IC50 [34]: > 25 µg/mL
neutralization IC50 (YU2 [35]): < 0.01 µg/mL
neutralization IC50 (Du172 (HIV-1) [36]): 0.06 µg/mL

VRC01 (antibody)
Kd [5]: 61 nM
koff [4]: 0.000294 s⁻¹
kon [4]: 4780 M⁻¹ s⁻¹

b6 (antibody)
Kd [4]: 7.7 nM
koff [4]: 8.66e-05 s⁻¹
kon [4]: 11000 M⁻¹ s⁻¹

b12 (antibody)
neutralization IC50 (UG037 (HIV-1)): > 25 µg/mL
neutralization IC50 (ZM214 (HIV-1) [37]): 13.6 µg/mL
neutralization IC50 (JRFL (HIV-1) [38]): 0.022 µg/mL
neutralization IC50 (REJ0451 (HIV-1)): 5.92 µg/mL
neutralization IC50 (WIT04160 (HIV-1)): 8.58 µg/mL
neutralization IC50 (Q842 (HIV-1)): > 25 µg/mL
neutralization IC50 (Zm135 (HIV-1) [9]): > 25 µg/mL
neutralization IC50 (DU422 (HIV-1) [10]): 0.464 µg/mL
neutralization IC50 (Zm197 (HIV-1) [11]): > 25 µg/mL
neutralization IC50 (CAP45 (HIV-1) [12]): 0.37 µg/mL
neutralization IC50 (SF162 (HIV-1) [39]): 0.07 µg/mL
neutralization IC50 (RW020 (HIV-1)): 10 µg/mL
neutralization IC50 (QH0692 (HIV-1) [40]): 0.97 µg/mL
neutralization IC50 (JRCSF [14]): 0.096 µg/mL
neutralization IC50 (MulV): > 25 µg/mL
neutralization IC50 (YU2 [15]): 2.18 µg/mL
neutralization IC50 (Du172 (HIV-1) [16]): 0.3 µg/mL
EC50 (read off the curve) [17]: 0.03 µg/mL
Kd [5]: 120 nM
neutralization IC50 [1]: > 25 µg/mL
neutralization IC50 [2]: 20.5 µg/mL
neutralization IC50 [3]: > 25 µg/mL
koff [4]: 0.00107 s⁻¹
kon [4]: 8790 M⁻¹ s⁻¹
